Here are results for three molecules from US20120058906A1 (published 2012).

Positions count from the first letter of the chain named.

Test [1] addresses T1, rHuman IGF-1 sR, (IGF-1 sR), CF (R&D Systems Cat#391-GR) (human, UniProt P08069 31-932).
T1 construct: also called insulin-like growth factor-1 soluble receptor; IGF-R1
As to the kind of experiment: MSD ECL multi-spot plate; Fab 32.5 nM; blank spot 473.

For test [2], the target named is T2, rHuman Erythropoietin R/Fc Chimera, CF (R&D Systems Cat#963-ER) (human, UniProt P19235 25-250).
T2 construct: also called EPO R/Fc; Epo R; Fc part of the bought chimera not given
T2 sequence: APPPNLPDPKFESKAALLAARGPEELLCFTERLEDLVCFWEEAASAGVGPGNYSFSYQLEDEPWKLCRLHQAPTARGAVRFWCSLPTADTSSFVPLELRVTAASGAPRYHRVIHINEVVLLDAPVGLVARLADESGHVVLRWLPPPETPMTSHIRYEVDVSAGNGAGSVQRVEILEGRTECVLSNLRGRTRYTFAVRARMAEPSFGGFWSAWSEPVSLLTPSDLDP
The description is as above.

Test [3] addresses T3, Recombinant Human DLL4 (R&D Systems Cat#1506-D4/CF) (human, UniProt Q9NR61 27-524).
T3 construct: also called delta-like protein 4
Described as above.

In test [4] the target is T4, rHuman ErbB2/Fc Chimera, CF (R&D Systems Cat#1129-ER) (human, UniProt P04626 23-652).
T4 construct: also called HER2/neu; human epidermal growth factor 2 receptor; Fc part of the bought chimera not given
Described as above.

Test [5] concerns the target T5, rHuman EGF R/Fc Chimera, CF (R&D Systems Cat#344-ER) (human, UniProt P00533 25-645).
T5 construct: also called epidermal growth factor receptor; Fc part of the bought chimera not given
Described as above.

Test [6] has as its target T6, rHuman HGF R/c-MET/Fc Chimera, CF (R&D Systems Cat#358-MT/CF) (human, UniProt P08581 25-932).
T6 construct: also called HGF R/Fc; hepatocyte growth factor receptor; Fc part of the bought chimera not given
Described as above.

The target of test [7] is T7, rHuman Notch-1/Fc Chimera, CF (R&D Systems Cat#3647-TK) (human, UniProt P46531 19-526).
T7 construct: Fc part of the bought chimera not given
The test is described as above.

The target in test [8] is T8, rHuman CD44/Fc Chimera, CF (R&D Systems Cat#3660-CD) (human, UniProt P16070 21-220).
T8 construct: Fc part of the bought chimera not given
The test is described as above.

The target in test [9] is T9, rHuman Notch-1/Fc Chimera, CF (R&D Systems Cat#3647-TK) (human, UniProt P46531 19-526).
T9 construct: Bought Fc chimera; Fc part of the bought chimera not given
Description: MSD ECL titration, Fab 2.3 nM, blank 234.

Test [10] has as its target T10, rHuman CD44/Fc Chimera, CF (R&D Systems Cat#3660-CD) (human, UniProt P16070 21-220).
T10 construct: Bought Fc chimera; Fc part of the bought chimera not given
Description: MSD ECL titration, Fab 2.3 nM, blank 234.

In test [11] the target is T11, rHuman IGF-1 sR (insulin-like growth factor-1 soluble receptor), CF (R&D Systems Cat#391-GR) (human, UniProt P08069 31-932).
T11 construct: Bought soluble receptor; also called IGF-R1
As to the kind of experiment: MSD ECL titration, Fab 2.3 nM, blank 234.

Test [12] addresses T12, rHuman P-Cadherin/Fc Chimera, CF (R&D Systems Cat#861-PC) (human, UniProt P22223 108-654).
T12 construct: Bought Fc chimera; Fc part of the bought chimera not given
Description: MSD ECL titration, Fab 2.3 nM, blank 234.

The target of test [13] is T13, rHuman Erythropoietin R/Fc Chimera, CF (R&D Systems Cat#963-ER) (human, UniProt P19235 25-250).
T13 construct: Bought Fc chimera; also called EPO R/Fc; EPOR; Fc part of the bought chimera not given
T13 sequence: T2 sequence
As to the kind of experiment: MSD ECL titration, Fab 2.3 nM, blank 234.

In test [14] the target is T14, Recombinant Human DLL4 (R&D Systems Cat#1506-D4/CF) (human, UniProt Q9NR61 27-524).
T14 construct: Bought recombinant protein; also called rHuman DLL4; delta-like protein 4
Description: MSD ECL titration, Fab 2.3 nM, blank 234.

Test [15] has as its target T15, rHuman ErbB2/Fc Chimera, CF (R&D Systems Cat#1129-ER) (human, UniProt P04626 23-652).
T15 construct: Bought Fc chimera; also called HER2/neu; Fc part of the bought chimera not given
As to the kind of experiment: MSD ECL titration, Fab 2.3 nM, blank 234.

Test [16] deals with T16, rHuman EGF R/Fc Chimera, CF (R&D Systems Cat#344-ER) (human, UniProt P00533 25-645).
T16 construct: Bought Fc chimera; Fc part of the bought chimera not given
As to the kind of experiment: MSD ECL titration, Fab 2.3 nM, blank 234.

For test [17], the target named is T17, rHuman HGF R/c-MET/Fc Chimera, CF (R&D Systems Cat#358-MT/CF) (human, UniProt P08581 25-932).
T17 construct: Bought Fc chimera; also called HGF R/Fc; Fc part of the bought chimera not given
Description: MSD ECL titration, Fab 2.3 nM, blank 234.

In test [18] the target is T18, rHuman IGF-1 sR (insulin-like growth factor-1 soluble receptor), CF (R&D Systems Cat#391-GR) (human, UniProt P08069 31-932).
T18 construct: Bought soluble receptor; also called IGF-R1
Description: ECL (MSD multi-spot), antigen on plate, Fab 2 nM.

In test [19] the target is T19, rHuman P-Cadherin/Fc Chimera, CF (R&D Systems Cat#861-PC) (human, UniProt P22223 108-654).
T19 construct: Bought Fc chimera; also called CDH3; not shown: Fc of the bought chimera
As to the kind of experiment: ECL (MSD multi-spot), antigen on plate, Fab 2 nM.

Test [20] has as its target T20, rHuman CD44/Fc Chimera, CF (R&D Systems Cat#3660-CD) (human, UniProt P16070 21-220).
T20 construct: Bought Fc chimera; not shown: Fc of the bought chimera
Description: ECL (MSD multi-spot), antigen on plate, Fab 2 nM.
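Further: blank spot per well as comparator with Hit at signal to blank ratio of 4 or more.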

B1: Fab VH1-8_IGHD2-2*01_IGHJ6*01 & L12_IGKJ1*01 (Fab, V domains shown)
VH: QVQLVQSGAEVKKPGASVKVSCKASGYTFTSYDINWVRQATGQGLEWMGWMNPNSGNTGYAQKFQGRVTMTRNTSISTAYMELSSLRSEDTAVYYCARGGYCSSTSCYADYYYYYGMDVWGQGTTVTVSS
VL: not shown
Turning to B1, the ECL signal in test [1] was determined as 561 ECL signal; in test [2], 673 ECL signal; in test [3], 2990 ECL signal; in test [4], 556 ECL signal; in [5], 645 ECL signal; in [6], 525 ECL signal. In addition, the figures for the ECL signal in test [7] and in [8] were 706 ECL signal and 573 ECL signal, respectively.

B2: Fab VH1-46_IGHD6-6*01_IGHJ1*01 & L6_IGKJ1*01 (Fab, V domains shown)
VH: QVQLVQSGAEVKKPGASVKVSCKASGYTFTSYYMHWVRQAPGQGLEWMGIINPSGGSTSYAQKFQGRVTMTRDTSTSTVYMELSSLRSEDTAVYYCAREEYSSSSAEYFQHWGQGTLVTVSS
VL: not shown
notes: Expressed in E. coli as Fab: heavy chain with CH1 plus Flag and His tags from Plasmid A, kappa light chain constant region from Plasmid C; also called Fab No. 1
For B2, the ECL signal in [9] is 333; in test [10], 317; in test [11], 231; in [12] it was 401; in test [13], 429; in test [14] it was 3060. In addition, the ECL signal in [15] turned out to be 291; in test [16], 289; in [17], 253.

B3: Fab VH1-46_IGHD6-6*01_IGHJ1*01_S102A_S103P_S104F & L6_IGKJ1*01_S31K (Fab, V domains shown)
VH: B2 VH with S102A, S103P, S104F
VL: EIVLTQSPATLSLSPGERATLSCRASQSVSKYLAWYQQKPGQAPRLLIYDASNRATGIPARFSGSGSGTDFTLTISSLEPEDFAVYYCQQRSNWPPWTFGQGTKVEIKR
notes: Fab
On to B3, for which the figures for the ECL signal in [18], in test [19] and in test [20] were 222 ECL signal, 351 ECL signal and 146 ECL signal, respectively.
